Source: publication PMC2228010, “Production and characterization of a recombinant anti-MUC1 scFv reactive with human carcinomas” (British Journal of Cancer, 1997)
Numbering of substitutions follows the chain as printed.

Columns and labels:
60 mer MUC1 peptide = biological target: T1, 60 mer MUC1 peptide (Homo sapiens MUC1 repeat, synthetic, UniProt P15941); assay: other fluorescence titration; fluorescence quenching in PBS, excitation 290 nm, emission 345 nm; C595 0.12 uM or C595 scFv 0.27 uM, 2.5 ul aliquots of 60 uM peptide added until maximum quenching; Scatchard analysis; details: both partners purified
T1 construct: source: synthetic peptide, provided by Dr J Darrell Fontenot

[1] = biological target: T2, immunodominant region related peptide APDTRPAPG (Homo sapiens MUC1 repeat, synthetic); assay: as above; details: both partners purified
T2 construct: stretch of the MUC1 20 amino acid repeat; Free in solution for fluorescence quenching; source: synthetic peptide
T2 chain: APDTRPAPG

p(1-25) peptide = biological target: T3, p(1-25) peptide (Homo sapiens MUC1 repeat, synthetic); assay: as above; details: both partners purified
T3 construct: 25 residues of the MUC1 tandem repeat region; source: synthetic peptide
T3 sequence (peptide, as listed by the source): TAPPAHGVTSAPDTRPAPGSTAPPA

105 mer MUC1 peptide = biological target: T4, 105 mer MUC1 peptide (Homo sapiens MUC1 repeat, synthetic, UniProt P15941); assay: as above; details: both partners purified
T4 construct: source: synthetic peptide, provided by Dr J Darrell Fontenot

[2] = biological target: T5, MUC1 antigen on human breast and bladder carcinoma tissue sections (Homo sapiens, UniProt P15941); assay: immunostaining of cells or tissue; 3 um paraffin sections of breast and transitional cell bladder tumours, no antigen retrieval; primary antibody 1 h; scFv detected with mouse anti-E-Tag (1:50); StreptABC/HRP, diaminobenzidine; details: one partner purified
T5 construct: MUC1 mucin in tumour tissue; also called breast tumour tissue sections; sections from bladder carcinomas; source: endogenous, archival paraffin sections of breast and transitional cell bladder tumours
T5 sequence (P15941 24-1255): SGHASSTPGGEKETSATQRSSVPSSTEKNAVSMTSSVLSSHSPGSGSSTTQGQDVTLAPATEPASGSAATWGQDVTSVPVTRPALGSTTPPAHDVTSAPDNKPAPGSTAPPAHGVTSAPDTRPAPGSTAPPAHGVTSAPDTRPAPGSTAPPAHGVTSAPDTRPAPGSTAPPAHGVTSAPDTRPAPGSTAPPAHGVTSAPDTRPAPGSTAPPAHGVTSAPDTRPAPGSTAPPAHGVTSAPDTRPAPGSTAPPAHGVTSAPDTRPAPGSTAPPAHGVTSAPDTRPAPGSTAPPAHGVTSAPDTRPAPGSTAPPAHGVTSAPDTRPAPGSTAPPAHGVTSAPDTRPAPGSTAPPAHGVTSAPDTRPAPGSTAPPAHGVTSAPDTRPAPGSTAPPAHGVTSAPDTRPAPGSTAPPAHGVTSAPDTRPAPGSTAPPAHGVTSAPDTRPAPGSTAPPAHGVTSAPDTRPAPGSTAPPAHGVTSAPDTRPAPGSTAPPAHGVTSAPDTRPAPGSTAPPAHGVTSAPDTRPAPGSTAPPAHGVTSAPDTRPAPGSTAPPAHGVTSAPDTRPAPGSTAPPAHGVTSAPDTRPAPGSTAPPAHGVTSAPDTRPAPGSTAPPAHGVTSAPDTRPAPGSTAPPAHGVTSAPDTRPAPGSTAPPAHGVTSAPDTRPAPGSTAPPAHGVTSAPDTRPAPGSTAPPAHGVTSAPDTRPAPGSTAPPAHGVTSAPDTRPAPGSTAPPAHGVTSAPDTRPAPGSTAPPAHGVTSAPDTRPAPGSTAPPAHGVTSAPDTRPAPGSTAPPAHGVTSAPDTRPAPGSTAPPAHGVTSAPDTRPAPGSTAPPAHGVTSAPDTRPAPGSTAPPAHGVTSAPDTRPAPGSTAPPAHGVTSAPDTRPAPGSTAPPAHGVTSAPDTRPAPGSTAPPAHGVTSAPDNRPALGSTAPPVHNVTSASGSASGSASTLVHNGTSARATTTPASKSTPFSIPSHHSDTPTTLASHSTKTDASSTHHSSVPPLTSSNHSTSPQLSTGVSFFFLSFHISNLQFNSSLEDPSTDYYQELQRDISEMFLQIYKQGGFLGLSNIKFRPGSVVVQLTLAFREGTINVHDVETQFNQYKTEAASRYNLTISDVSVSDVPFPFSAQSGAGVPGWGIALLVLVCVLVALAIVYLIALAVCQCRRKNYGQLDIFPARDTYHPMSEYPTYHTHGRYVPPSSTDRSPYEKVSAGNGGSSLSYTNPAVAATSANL

[3] = biological target: T2, immunodominant region related peptide …; assay: peptide epitope affinity chromatography; filtered bacterial supernatant applied to Sepharose 4B conjugated to APDTRPAPG; washed with PBS, 0.02% sodium azide; bound scFv eluted with 3 M sodium thiocyanate; eluate analysed by SDS-PAGE and anti-E-Tag Western blot; details: one partner purified

Measured: binding result

B1: Monoclonal antibody C595 (antibody, V domains shown)
VH: EVQLVESGGGLVQPGGSLKLSCAASGFTFSSYGMSWVRQTPDKRLELVATINSNGGSTYYPDSVKGRFTISRDNAKNTLYLQMSSLKSEDTAMYYCARDRDGYDEGFDYWG
VL: QIVLTQSPAIMSASPGEKVTMTCSASSSVSYMHWYQQKSGTSPKRWIYDTSKLASGVPARFSGSGSGTSYSLTISSMEAEDAATYYCQQWSSNPPTFGGGTKLEIK
notes: mouse IgG3 heavy chain constant region; mouse kappa light chain constant region; IgG3, kappa light chain; it was used at stated concentrations in PBS; also called NCRC-48; source: hybridoma (spleen cells of a BALB/c mouse immunized against purified MUC1 urinary mucin)
not listed: [3]
binds: all other assays above

B2: C595 scFv clone 31 (scFv, V domains shown)
VH: QVQLQESGGGLVQPGGSLKLSCAASGFTFSSYGMSWVRQTPDKRLELVATINSNGGSTYYPDSVKGRFTISRDNAKNTLYLQMSSLKSEDTAMYYCARDRDGYDEGFDYWGPGTTVTVSS
VL: B1 VL with Q1D, V3E, A9S, G100R, I105L
notes: it is not written as a part; About 30 kDa on SDS-PAGE; also called recombinant C595 scFv; the scFv; source: E. coli HB2151 (pCANTAB 5E, IPTG), bacterial culture supernatant; not shown: E-Tag, C-terminal, kept
not listed: [1]
binds: all other assays above
